Results reported in the supplement of paper PMC7877785.
± gives the uncertainty stated by the source.

Assay: self-splicing fitness, log relative to wild type (ln ratio); higher = more splicing; Tetrahymena group I intron in knt gene, E. coli kanamycin selection, DiMSum; sequences stand for … in CUCUCU…GGAGGGAAAAGUUAUCAGGCAUGCACCUGGUAGCUAGUCUUUAAACCAAUAGAUUGCAUCGGUUUAAAAGGCAAGACCGUCAAAUUGCGGGAAAGGGGUCAACAGCCGUUCAGUACCAAGUCUCAGGGGAAACUUUGAGAUGGCCUUGCAAAGGGUAUGGUAAUAAGCUGACGGACAUGGUCCUAACCACGCAGCCAAGUCCUAAGUCAACAGAUCUUCUGUUGAUAUGGAUGCAGUUCACAGACUAAAUGUCGGUCGGGGAAGAUGUAUUCUUCUCAUAAGAUAUAGUCGGACCUCUCCUUAAUGGGAGCUAGCGGAUGAAGUGAUGCAACACUGGAGCCGCUGGGAACUAAUUUGUAUGCGAAAGUAUAUUGAUUAGUUUUGGAGUACUCGUGGUCG
How it was run: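 A randomised library covering all eight P1ex-region intron nucleotides was built with the intron in the knt kanamycin-resistance gene on pET-22b(+) and held in E. coli BL21(DE3). Cells were grown overnight at 37°C or 30°C on LB agar, with or without 25 μg/mL kanamycin, plus 100 μg/mL carbenicillin, 50 μM IPTG and 0.2% rhamnose, and pooled colonies were amplicon-sequenced on an Illumina HiSeq 2500. DiMSum fitness is the error-weighted combination of wild-type-normalised replicate fold changes, kanamycin versus none.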

Row | Sequence | self-splicing fitness (ln) (30 °C) | self-splicing fitness (ln) (37 °C)
1 | AGUGAGCAAUAUUACGAACG | -0.686 ± 0.094 | -0.206 ± 0.15
2 | AUAGAGCAAUAUUACGACAA | -1.04 ± 0.07 | -0.291 ± 0.092
3 | UGGGAGCAAUAUUACGUUUG | -3.75 ± 0.27 | -2.14 ± 0.27
4 | CCCCAGCAAUAUUACGGUCA | -2.71 ± 0.16 | -0.931 ± 0.13
5 | CCGUAGCAAUAUUACGUAGC | -3.91 ± 0.21 | -2.63 ± 0.22
6 | AUGUAGCAAUAUUACGAAAU | -1.92 ± 0.086 | -0.989 ± 0.11
7 | CUCGAGCAAUAUUACGCACG | -1.6 ± 0.23 | –
8 | AUGUAGCAAUAUUACGUACA | -0.425 ± 0.14 | -0.328 ± 0.16
9 | GUAUAGCAAUAUUACGGCGG | – | -2.1 ± 0.38
10 | AAAUAGCAAUAUUACGGAUU | -0.612 ± 0.074 | -1.1 ± 0.09
11 | AAGGAGCAAUAUUACGCCGA | -2.33 ± 0.18 | -0.979 ± 0.26
12 | GUUAAGCAAUAUUACGGCGG | -2.8 ± 0.21 | -2.29 ± 0.33
13 | ACCGAGCAAUAUUACGGGGA | -1.87 ± 0.1 | -1.65 ± 0.1
14 | UUACAGCAAUAUUACGGCAC | -1.77 ± 0.17 | -2.26 ± 0.18
15 | UUACAGCAAUAUUACGUUGC | -3.56 ± 0.37 | -2.37 ± 0.26
16 | CGUGAGCAAUAUUACGAAGU | -3.6 ± 0.21 | -2.41 ± 0.19
17 | CAACAGCAAUAUUACGGUUG | -3.26 ± 0.1 | -2.27 ± 0.12
18 | CCGGAGCAAUAUUACGUAAA | -3.29 ± 0.25 | -2.09 ± 0.47
19 | AGCAAGCAAUAUUACGUGCU | -2.38 ± 0.14 | -2.07 ± 0.16
20 | AAAUAGCAAUAUUACGUGGG | -3.39 ± 0.2 | -2.49 ± 0.2
21 | CCGCAGCAAUAUUACGCCAA | -3.73 ± 0.38 | -2.06 ± 0.34
22 | AUCAAGCAAUAUUACGUGAA | -1.73 ± 0.071 | -1.45 ± 0.1
23 | CGUAAGCAAUAUUACGUGCA | -0.906 ± 0.086 | 0.102 ± 0.096
24 | GCUAAGCAAUAUUACGACAA | -1.43 ± 0.18 | -2.5 ± 0.2
25 | GAACAGCAAUAUUACGUCUA | -0.567 ± 0.074 | -0.586 ± 0.073

Row | Sequence | self-splicing fitness (ln) (30 °C) | self-splicing fitness (ln) (37 °C)
26 | UAUUAGCAAUAUUACGAUUG | -1.08 ± 0.089 | -0.0341 ± 0.14
27 | UCACAGCAAUAUUACGCUAU | – | -2.23 ± 0.21
28 | GACCAGCAAUAUUACGACAC | -0.384 ± 0.065 | -0.0663 ± 0.085
29 | ACUAAGCAAUAUUACGUCUA | -1.45 ± 0.13 | -0.981 ± 0.12
30 | AGCUAGCAAUAUUACGCAGA | -3.4 ± 0.34 | -1.82 ± 0.18
31 | CCGCAGCAAUAUUACGGGAC | -4.12 ± 0.46 | -2.65 ± 0.29
32 | CGCAAGCAAUAUUACGUAAU | -3.89 ± 0.2 | -2.14 ± 0.17
33 | CAGUAGCAAUAUUACGCUGG | -2.5 ± 0.17 | -1.34 ± 0.19
34 | AAUCAGCAAUAUUACGAGAU | -2.72 ± 0.11 | -0.708 ± 0.1
35 | AAAAAGCAAUAUUACGUCGG | -1.36 ± 0.082 | -1.39 ± 0.1
36 | UAGCAGCAAUAUUACGAAAU | -1.96 ± 0.24 | -1.66 ± 0.28
37 | UCCCAGCAAUAUUACGCAUG | -4.28 ± 0.22 | -2.41 ± 0.19
38 | GAGCAGCAAUAUUACGGAGG | -3.98 ± 0.21 | -2.3 ± 0.21
39 | AUAUAGCAAUAUUACGUAGA | -2.19 ± 0.094 | -1.87 ± 0.15
40 | CGAGAGCAAUAUUACGCGAG | -2.82 ± 0.19 | -1.88 ± 0.22
41 | AUCGAGCAAUAUUACGUGCG | -4 ± 0.29 | -1.73 ± 0.13
42 | AUAAAGCAAUAUUACGAAGA | -2.47 ± 0.15 | -1.17 ± 0.18
43 | GACAAGCAAUAUUACGUUAC | -3.32 ± 0.15 | -2.36 ± 0.17
44 | CAGAAGCAAUAUUACGCAUC | -4.43 ± 0.37 | -2.37 ± 0.14
45 | UUCGAGCAAUAUUACGAAAA | -2.97 ± 0.31 | -1.28 ± 0.18
46 | AUGCAGCAAUAUUACGCUCG | -1.89 ± 0.11 | -0.774 ± 0.13
47 | ACUCAGCAAUAUUACGGGUA | -1.57 ± 0.099 | -0.922 ± 0.083
48 | GGGUAGCAAUAUUACGGAUA | -1.74 ± 0.25 | -1.08 ± 0.29
49 | UGUGAGCAAUAUUACGGUUG | -2.98 ± 0.19 | -2.17 ± 0.23
50 | AUACAGCAAUAUUACGGACG | -1.61 ± 0.091 | -1.04 ± 0.098

Row | Sequence | self-splicing fitness (ln) (30 °C) | self-splicing fitness (ln) (37 °C)
51 | CAAGAGCAAUAUUACGCUGG | -3.84 ± 0.3 | -1.99 ± 0.19
52 | UGGCAGCAAUAUUACGCAGU | -4.13 ± 0.36 | -2.57 ± 0.21
53 | AACGAGCAAUAUUACGGAAC | -2.26 ± 0.23 | –
54 | CUCAAGCAAUAUUACGGUAA | -1.8 ± 0.27 | -1.66 ± 0.18
55 | CUCGAGCAAUAUUACGAGAU | -2.87 ± 0.23 | -2.76 ± 0.27
56 | UACGAGCAAUAUUACGUCGC | -3.3 ± 0.47 | -2.49 ± 0.42
57 | UAGUAGCAAUAUUACGCAAA | -3.4 ± 0.3 | -2.28 ± 0.2
58 | UGGCAGCAAUAUUACGAUCA | -0.413 ± 0.14 | -0.198 ± 0.12
59 | CACGAGCAAUAUUACGCGCU | -4.22 ± 0.21 | -2.01 ± 0.19
60 | GCCAAGCAAUAUUACGCUGA | -1.4 ± 0.1 | -0.943 ± 0.15
61 | UGCAAGCAAUAUUACGCACA | -1.38 ± 0.12 | -0.954 ± 0.13
62 | GUCAAGCAAUAUUACGGCAU | -1.55 ± 0.083 | -0.119 ± 0.1
63 | GCACAGCAAUAUUACGUGUC | -2.98 ± 0.12 | -2.05 ± 0.17
64 | GAUAAGCAAUAUUACGUACU | -0.466 ± 0.089 | -0.373 ± 0.12
65 | AACAAGCAAUAUUACGCCAC | -3.71 ± 0.4 | -2.83 ± 0.47
66 | UCGAAGCAAUAUUACGAGAG | -3.06 ± 0.43 | -1.91 ± 0.25
67 | UGACAGCAAUAUUACGGCAC | -3.55 ± 0.19 | -2.23 ± 0.19
68 | GGGUAGCAAUAUUACGAUGU | -0.794 ± 0.1 | 0.357 ± 0.15
69 | AUUAAGCAAUAUUACGGAGA | -2.53 ± 0.19 | -3.25 ± 0.32
70 | AAAUAGCAAUAUUACGGGAC | -3.19 ± 0.29 | -1.57 ± 0.24
71 | UCCUAGCAAUAUUACGGGCG | -0.227 ± 0.093 | -0.227 ± 0.11
72 | CAGUAGCAAUAUUACGGUCA | – | -1.71 ± 0.28
73 | CCGGAGCAAUAUUACGUAAC | -2.38 ± 0.38 | -1.45 ± 0.43
74 | CCAGAGCAAUAUUACGCUUC | -3.48 ± 0.42 | –
75 | GCGUAGCAAUAUUACGCCGG | -2.21 ± 0.21 | -3.92 ± 0.42

Row | Sequence | self-splicing fitness (ln) (30 °C) | self-splicing fitness (ln) (37 °C)
76 | ACAAAGCAAUAUUACGGGGC | -3.69 ± 0.23 | -3.28 ± 0.27
77 | AUGCAGCAAUAUUACGCGCA | -1.91 ± 0.14 | -1.39 ± 0.099
78 | UUUCAGCAAUAUUACGGGUG | -0.316 ± 0.074 | -0.441 ± 0.087
79 | AACAAGCAAUAUUACGAUUA | -0.823 ± 0.066 | -0.696 ± 0.071
80 | CGGUAGCAAUAUUACGCUUG | -2.07 ± 0.14 | -0.206 ± 0.14
81 | AGAUAGCAAUAUUACGAGCU | -0.432 ± 0.13 | -1.02 ± 0.13
82 | UAUCAGCAAUAUUACGAACG | 0.353 ± 0.085 | 0.157 ± 0.094
83 | GCAAAGCAAUAUUACGUAAU | -1.23 ± 0.061 | -0.867 ± 0.084
84 | UGAGAGCAAUAUUACGUCUU | -3.18 ± 0.44 | -1.9 ± 0.28
85 | CAUUAGCAAUAUUACGAGAC | -3.15 ± 0.46 | -1.57 ± 0.42
86 | UUUGAGCAAUAUUACGCGGG | -2.66 ± 0.24 | -1.45 ± 0.21
87 | CGCUAGCAAUAUUACGGUUG | -2.07 ± 0.055 | -0.803 ± 0.072
88 | UCGUAGCAAUAUUACGCUAU | -2.37 ± 0.45 | -2.88 ± 0.4
89 | GCAUAGCAAUAUUACGGACU | 0.021 ± 0.15 | -0.121 ± 0.15
90 | AUGCAGCAAUAUUACGACUC | -0.57 ± 0.11 | 0.501 ± 0.11
91 | UGACAGCAAUAUUACGACGG | -0.284 ± 0.11 | -0.251 ± 0.11
92 | CCUAAGCAAUAUUACGAAAA | -3.53 ± 0.28 | -2.44 ± 0.19
93 | CUGCAGCAAUAUUACGUAAU | -4.74 ± 0.2 | -2.04 ± 0.16
94 | UAAUAGCAAUAUUACGACGA | -1.41 ± 0.13 | -1.15 ± 0.14
95 | UCUAAGCAAUAUUACGGCUG | -0.983 ± 0.21 | -1.68 ± 0.24
96 | CAUCAGCAAUAUUACGAAUA | -1.48 ± 0.23 | -0.645 ± 0.17
97 | GUACAGCAAUAUUACGUGUA | -3.18 ± 0.16 | -2.32 ± 0.14
